What was measured:
GajA;GajB = biological target: T1, GajA;GajB (Bacillus cereus VD045;Bacillus cereus …, UniProt J8H9C1;J8HQ06 1-578;1-494, |); test: EMSA; 5 mM Ca2+; conditions: protein: recombinant;recombinant; chain copies: 4;4; label: none (ethidium bromide post-stain)
T1 sequence 1: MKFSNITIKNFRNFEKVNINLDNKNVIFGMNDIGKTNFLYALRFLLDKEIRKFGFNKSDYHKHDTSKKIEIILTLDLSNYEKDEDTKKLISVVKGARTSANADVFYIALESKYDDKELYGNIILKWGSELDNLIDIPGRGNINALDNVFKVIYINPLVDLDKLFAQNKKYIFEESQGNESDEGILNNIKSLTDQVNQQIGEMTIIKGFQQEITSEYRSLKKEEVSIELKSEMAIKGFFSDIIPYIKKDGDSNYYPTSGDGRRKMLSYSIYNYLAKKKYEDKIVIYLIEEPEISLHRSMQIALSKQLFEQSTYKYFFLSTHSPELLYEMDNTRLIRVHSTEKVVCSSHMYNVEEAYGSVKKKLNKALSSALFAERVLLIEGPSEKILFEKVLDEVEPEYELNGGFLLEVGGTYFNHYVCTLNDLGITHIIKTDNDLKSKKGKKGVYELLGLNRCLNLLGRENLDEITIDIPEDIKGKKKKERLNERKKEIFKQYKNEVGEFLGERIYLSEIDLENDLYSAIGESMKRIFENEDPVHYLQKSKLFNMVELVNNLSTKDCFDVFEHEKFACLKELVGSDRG
T1 sequence 2: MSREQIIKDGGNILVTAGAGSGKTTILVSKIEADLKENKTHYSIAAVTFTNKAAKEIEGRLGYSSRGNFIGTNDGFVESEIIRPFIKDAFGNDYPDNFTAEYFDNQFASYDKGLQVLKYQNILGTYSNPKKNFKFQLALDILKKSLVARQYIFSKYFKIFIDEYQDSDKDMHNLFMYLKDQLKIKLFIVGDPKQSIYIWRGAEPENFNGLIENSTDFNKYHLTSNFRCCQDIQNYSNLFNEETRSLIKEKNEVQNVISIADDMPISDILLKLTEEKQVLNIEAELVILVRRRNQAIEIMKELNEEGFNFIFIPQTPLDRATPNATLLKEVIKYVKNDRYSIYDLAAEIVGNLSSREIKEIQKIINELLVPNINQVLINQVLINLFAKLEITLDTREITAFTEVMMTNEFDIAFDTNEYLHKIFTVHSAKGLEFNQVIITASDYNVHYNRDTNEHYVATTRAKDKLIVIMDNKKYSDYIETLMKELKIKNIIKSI

GajA E379A;GajB = biological target: T2, GajA E379A;GajB (Bacillus cereus VD045;Bacillus cereus …, UniProt J8H9C1;J8HQ06 1-578;1-494, E379A|); test: EMSA; 5 mM Ca2+; conditions: protein: recombinant;recombinant; tags: N-terminal 6xHis-SUMO2-5xGS, cleaved by SENP2;none in co-expressed complex; chain copies: 4;4; label: none (ethidium bromide post-stain)
T2 sequence 1: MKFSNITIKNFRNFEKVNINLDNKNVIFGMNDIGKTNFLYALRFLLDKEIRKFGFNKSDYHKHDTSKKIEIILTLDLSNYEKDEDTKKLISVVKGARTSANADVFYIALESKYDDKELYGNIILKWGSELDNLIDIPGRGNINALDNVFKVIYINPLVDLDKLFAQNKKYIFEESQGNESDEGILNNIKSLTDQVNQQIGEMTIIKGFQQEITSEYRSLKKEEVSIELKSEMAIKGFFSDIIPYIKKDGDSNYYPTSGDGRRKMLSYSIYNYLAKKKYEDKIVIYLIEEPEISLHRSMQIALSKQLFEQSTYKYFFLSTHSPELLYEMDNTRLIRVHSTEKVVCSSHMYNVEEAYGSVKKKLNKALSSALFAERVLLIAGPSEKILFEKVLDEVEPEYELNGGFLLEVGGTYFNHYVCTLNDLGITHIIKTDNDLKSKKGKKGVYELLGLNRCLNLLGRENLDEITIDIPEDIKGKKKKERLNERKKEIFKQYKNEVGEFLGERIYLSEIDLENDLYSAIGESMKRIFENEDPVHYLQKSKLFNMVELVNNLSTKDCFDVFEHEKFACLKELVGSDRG
T2 sequence 2: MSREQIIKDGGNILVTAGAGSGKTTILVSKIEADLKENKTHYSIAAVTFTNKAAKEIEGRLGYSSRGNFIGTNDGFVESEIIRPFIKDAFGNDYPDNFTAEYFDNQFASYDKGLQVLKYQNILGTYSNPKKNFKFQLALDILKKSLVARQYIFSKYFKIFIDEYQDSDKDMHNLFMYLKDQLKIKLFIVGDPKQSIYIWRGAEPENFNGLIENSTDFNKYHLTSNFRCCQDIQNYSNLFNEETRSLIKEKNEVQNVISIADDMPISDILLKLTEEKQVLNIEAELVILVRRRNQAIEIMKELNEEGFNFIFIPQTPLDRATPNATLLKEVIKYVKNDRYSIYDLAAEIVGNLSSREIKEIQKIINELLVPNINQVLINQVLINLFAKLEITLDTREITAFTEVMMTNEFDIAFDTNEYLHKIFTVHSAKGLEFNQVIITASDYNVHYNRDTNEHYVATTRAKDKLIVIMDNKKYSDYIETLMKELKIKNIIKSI

[1] = biological target: T3, Bacillus cereus VD045 GajA, co-expressed with GajB, tag removed (subunit of the GajAB complex) (Bacillus cereus VD045, UniProt J8H9C1 2-578); test: crystal structure; co-expressed and co-purified GajAB, 3.0 Å; hanging drop, 18 °C, 100 mM HEPES-NaOH pH 7.5, 2.4% PEG-400, 2.2 M ammonium sulfate; conditions: both partners purified
T3 construct: GajA, Bacillus cereus VD045, IMG ID 2519684552; the 5×GS linker may stay on GajA after SENP2 cleavage; also called BcGajA; source: E. coli BL21(DE3) strains, co-expressed with GajB, purified (Ni-NTA, SUMO2 cleavage by hSENP2, SEC); not shown: 6×His-SUMO2-5×GS, N-terminal, cleaved
T3 sequence: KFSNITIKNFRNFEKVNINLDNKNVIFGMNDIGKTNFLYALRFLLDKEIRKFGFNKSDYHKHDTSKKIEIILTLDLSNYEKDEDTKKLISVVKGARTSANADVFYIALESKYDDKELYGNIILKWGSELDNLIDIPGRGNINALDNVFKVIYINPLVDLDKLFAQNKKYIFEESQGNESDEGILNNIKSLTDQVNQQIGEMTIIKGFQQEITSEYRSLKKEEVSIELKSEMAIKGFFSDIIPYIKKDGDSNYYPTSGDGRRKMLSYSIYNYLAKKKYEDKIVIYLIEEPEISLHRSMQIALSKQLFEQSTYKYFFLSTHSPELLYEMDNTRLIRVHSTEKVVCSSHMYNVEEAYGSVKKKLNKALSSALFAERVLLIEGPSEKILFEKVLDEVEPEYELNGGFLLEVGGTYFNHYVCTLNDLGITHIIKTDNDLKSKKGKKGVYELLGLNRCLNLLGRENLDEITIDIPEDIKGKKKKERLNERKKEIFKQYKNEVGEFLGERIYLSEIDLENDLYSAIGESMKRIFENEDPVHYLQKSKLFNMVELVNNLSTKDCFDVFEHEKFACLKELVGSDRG

[2] = biological target: Bacillus cereus VD045 GajB, untagged, co-expressed with tagged GajA (Bacillus cereus VD045) (UniProt J8HQ06); test: as above
[3] = biological target: T4, SUMO2-tagged GajAB complex (Bacillus cereus VD045), 4:4 (Bacillus cereus VD045, UniProt J8H9C1 2-578; J8HQ06 1-494); test: cryo-EM structure; SUMO2-GajAB–Gad1 (Phi3T) co-complex, 1 mg ml^-1, 2.57 Å D2 symmetry map; conditions: both partners purified
T4 construct: GajA, Bacillus cereus VD045, IMG ID 2519684552; GajB, Bacillus cereus VD045, IMG ID 2519684553; also called SUMO2-GajAB; SUMO2-tagged BcGajAB; source: E. coli, co-expressed, purified (Ni-NTA, SEC); not shown: 6×His-SUMO2, N-terminal, kept; copies: 4 + 4
T4 sequence 1: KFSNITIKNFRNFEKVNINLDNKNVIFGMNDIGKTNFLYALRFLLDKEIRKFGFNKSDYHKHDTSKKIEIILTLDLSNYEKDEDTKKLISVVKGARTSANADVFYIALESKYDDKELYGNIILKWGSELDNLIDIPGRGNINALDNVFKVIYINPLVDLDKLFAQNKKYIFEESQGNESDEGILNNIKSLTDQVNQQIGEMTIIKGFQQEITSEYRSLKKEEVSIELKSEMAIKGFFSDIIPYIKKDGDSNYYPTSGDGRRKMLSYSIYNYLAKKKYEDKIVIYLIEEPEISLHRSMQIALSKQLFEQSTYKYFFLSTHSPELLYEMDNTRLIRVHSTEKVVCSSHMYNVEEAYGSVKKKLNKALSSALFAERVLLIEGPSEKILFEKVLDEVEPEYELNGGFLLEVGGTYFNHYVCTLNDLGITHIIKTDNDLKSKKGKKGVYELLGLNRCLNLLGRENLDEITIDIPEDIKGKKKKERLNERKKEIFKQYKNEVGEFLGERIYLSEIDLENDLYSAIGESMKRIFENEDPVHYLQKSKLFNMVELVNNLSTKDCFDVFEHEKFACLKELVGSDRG
T4 sequence 2: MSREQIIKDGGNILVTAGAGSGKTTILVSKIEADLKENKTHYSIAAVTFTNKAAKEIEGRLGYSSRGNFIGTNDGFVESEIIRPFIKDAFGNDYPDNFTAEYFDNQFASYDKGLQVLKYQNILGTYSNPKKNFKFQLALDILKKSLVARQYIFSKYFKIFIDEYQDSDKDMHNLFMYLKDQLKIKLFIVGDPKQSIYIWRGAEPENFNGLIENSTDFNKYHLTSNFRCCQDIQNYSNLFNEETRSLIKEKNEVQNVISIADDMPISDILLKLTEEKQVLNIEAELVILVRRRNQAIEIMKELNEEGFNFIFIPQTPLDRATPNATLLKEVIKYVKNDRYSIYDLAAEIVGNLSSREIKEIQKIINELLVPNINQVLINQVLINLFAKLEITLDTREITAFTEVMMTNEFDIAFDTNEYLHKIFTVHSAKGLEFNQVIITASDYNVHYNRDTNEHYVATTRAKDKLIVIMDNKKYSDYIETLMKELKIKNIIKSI

[4] = biological target: the molecule itself; test: as above

B1: 56-bp target dsDNA (dsDNA)
DNA 1: TTTTTTTTTTTTTTTTTAATAACCCGGTTATTTTTTTTTTTTTTTTTTTTTTTTTT
DNA 2: AAAAAAAAAAAAAAAAAAAAAAAAAATAACCGGGTTATTAAAAAAAAAAAAAAAAA
B1: binds (GajA;GajB); binds (GajA E379A;GajB).

B2: Bacillus cereus VD045 GajB, untagged, co-expressed with tagged GajA (enzyme)
chain: MSREQIIKDGGNILVTAGAGSGKTTILVSKIEADLKENKTHYSIAAVTFTNKAAKEIEGRLGYSSRGNFIGTNDGFVESEIIRPFIKDAFGNDYPDNFTAEYFDNQFASYDKGLQVLKYQNILGTYSNPKKNFKFQLALDILKKSLVARQYIFSKYFKIFIDEYQDSDKDMHNLFMYLKDQLKIKLFIVGDPKQSIYIWRGAEPENFNGLIENSTDFNKYHLTSNFRCCQDIQNYSNLFNEETRSLIKEKNEVQNVISIADDMPISDILLKLTEEKQVLNIEAELVILVRRRNQAIEIMKELNEEGFNFIFIPQTPLDRATPNATLLKEVIKYVKNDRYSIYDLAAEIVGNLSSREIKEIQKIINELLVPNINQVLINQVLINLFAKLEITLDTREITAFTEVMMTNEFDIAFDTNEYLHKIFTVHSAKGLEFNQVIITASDYNVHYNRDTNEHYVATTRAKDKLIVIMDNKKYSDYIETLMKELKIKNIIKSI
notes: GajB, Bacillus cereus VD045, IMG ID 2519684553; also called BcGajB; source: co-purified (Ni-NTA, SEC) or in lysate
B2 was tested, and the “stoichiometry N” value [1] was 1 GajB per GajA (4:4) and the stoichiometry N [2] was 2.

B3: Bacillus phage Phi3T Gad1 (Gabija anti-defence 1) (natural protein)
chain: MKLIGIKTSNCFLVSDNIEGKRYFHSQLDELLFDGKRATETYKSDWFKLEKEPSVIEKQMPAKKINHRYELKEGFQESELTPKVIKASYIGEDSEYYEVKGLYDLKFEEIPQQNEKIEFEMNVIEEIDGELKLQSHNFNLNYNLLDRIQTHPMLLETKPCYLSQEESYKIIRNHIKANINPKFARITSDYDFCLTVVKVLELYKPHEYIVDLNAMYKRRKPKLEKRFQTKREVEIYKVAPKAYQSYPIVEPFSGKDVEDLKSNIKKFLDDLMAKINEPLVECKCCKGRGVILNEN
notes: Gad1, Bacillus phage Phi3T, 35 kDa; Eight copies stand in the 4:4:8 GajAB–Gad1 complex; source: E. coli, co-expressed with SUMO2-GajAB (pBAD vector), co-purified (Ni-NTA, SEC)
For B3, the “stoichiometry N” value [3] was 8 Gad1 per 4:4 GajAB complex and the “stoichiometry N” value [4] was 8.

Reference: PMC10781630, “Structural basis of Gabija anti-phage defence and viral immune evasion” (Nature, 2023)
